Assay results taken from paper PMC9482650, “Quantitative fragmentomics allow affinity mapping of interactomes” (Nature Communications, 2022).

What was measured:
Experiment in all cases: holdup assay
Set-up in all cases: key: below the threshold = too weak to quantify, mostly under pKd 3.1 to 4
Details in all cases: plain residues with an end cap or a label only (N-terminal biotin on a linker: ado-ado)
ARHGAP21, Q5T5U3 = target: T1, ARHGAP21, Q5T5U3
T1 sequence (Q5T5U3 45-169, limits assumed, looked up): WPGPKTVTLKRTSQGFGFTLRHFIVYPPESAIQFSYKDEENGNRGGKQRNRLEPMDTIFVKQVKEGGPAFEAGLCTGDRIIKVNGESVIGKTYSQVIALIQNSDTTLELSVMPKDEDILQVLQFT

ARHGEF11, O15085 = target: T2, ARHGEF11, O15085
T2 sequence (O15085 42-136, limits assumed, looked up): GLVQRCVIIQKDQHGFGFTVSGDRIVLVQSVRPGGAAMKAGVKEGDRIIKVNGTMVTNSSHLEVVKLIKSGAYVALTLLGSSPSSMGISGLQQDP

DFNB31_3, Q9P202 = target: T3, DFNB31_3, Q9P202
T3 sequence (Q9P202 811-907, limits assumed, looked up): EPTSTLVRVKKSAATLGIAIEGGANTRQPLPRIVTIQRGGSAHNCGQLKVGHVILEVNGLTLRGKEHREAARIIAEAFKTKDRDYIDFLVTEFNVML

DLG4_2, P78352 = target: DLG4_2, P78352
Sequence of DLG4_2, P78352 (P78352 155-259): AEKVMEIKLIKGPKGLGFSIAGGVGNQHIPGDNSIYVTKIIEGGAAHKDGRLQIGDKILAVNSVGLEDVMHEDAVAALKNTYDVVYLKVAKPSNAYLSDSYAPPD

FRMPD1, Q5SYB0 = target: T4, FRMPD1, Q5SYB0
T4 sequence (Q5SYB0 52-145, limits assumed, looked up): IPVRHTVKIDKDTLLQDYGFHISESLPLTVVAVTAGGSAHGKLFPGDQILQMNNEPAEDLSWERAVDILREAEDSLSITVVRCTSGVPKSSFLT

GIPC2, Q8TF65 = target: GIPC2, Q8TF65
Sequence of GIPC2, Q8TF65 (Q8TF65 112-203): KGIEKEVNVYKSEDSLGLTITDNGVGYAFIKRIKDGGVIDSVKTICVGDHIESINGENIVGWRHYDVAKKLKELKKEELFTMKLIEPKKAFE

GRID2IP_2, A4D2P6 = target: GRID2IP_2, A4D2P6
Sequence of GRID2IP_2, A4D2P6 (A4D2P6 272-370): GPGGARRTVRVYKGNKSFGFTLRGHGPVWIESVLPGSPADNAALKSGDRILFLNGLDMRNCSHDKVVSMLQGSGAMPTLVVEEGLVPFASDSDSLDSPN

GRIP1_5, Q9Y3R0 = target: T5, GRIP1_5, Q9Y3R0
T5 sequence (Q9Y3R0 568-668, limits assumed, looked up): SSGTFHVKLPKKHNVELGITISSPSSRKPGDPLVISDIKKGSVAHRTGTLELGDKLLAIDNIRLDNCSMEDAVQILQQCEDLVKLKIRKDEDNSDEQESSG

GRIP2_4, Q9C0E4 = target: GRIP2_4, Q9C0E4
Sequence of GRIP2_4, Q9C0E4 (Q9C0E4 446-548): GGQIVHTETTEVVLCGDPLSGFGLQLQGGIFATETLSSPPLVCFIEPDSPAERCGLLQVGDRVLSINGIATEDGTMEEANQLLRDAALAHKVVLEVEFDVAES

IL16_3, Q14005 = target: IL16_3, Q14005
Sequence of IL16_3, Q14005 (Q14005 1107-1207): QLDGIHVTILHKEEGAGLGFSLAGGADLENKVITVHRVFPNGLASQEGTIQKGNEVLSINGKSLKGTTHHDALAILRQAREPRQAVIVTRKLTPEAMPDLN

Inadl_10, Q8NI35 = target: Inadl_10, Q8NI35
Sequence of Inadl_10, Q8NI35 (Q8NI35 1673-1763): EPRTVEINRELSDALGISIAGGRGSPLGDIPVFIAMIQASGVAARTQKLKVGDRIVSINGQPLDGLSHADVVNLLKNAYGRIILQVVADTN

Inadl_8, Q8NI35 = target: Inadl_8, Q8NI35
Sequence of Inadl_8, Q8NI35 (Q8NI35 1425-1530): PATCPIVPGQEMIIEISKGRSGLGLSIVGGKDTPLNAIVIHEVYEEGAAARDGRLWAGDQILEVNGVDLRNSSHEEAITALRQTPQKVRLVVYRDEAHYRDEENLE

LIN7B, Q9HAP6 = target: T6, LIN7B, Q9HAP6
T6 sequence (Q9HAP6 88-185, limits assumed, looked up): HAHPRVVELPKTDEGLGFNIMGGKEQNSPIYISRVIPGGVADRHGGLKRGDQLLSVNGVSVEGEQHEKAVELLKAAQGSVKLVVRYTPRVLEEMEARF

LIN7C, Q9NUP9 = target: T7, LIN7C, Q9NUP9
T7 sequence (Q9NUP9 88-185, limits assumed, looked up): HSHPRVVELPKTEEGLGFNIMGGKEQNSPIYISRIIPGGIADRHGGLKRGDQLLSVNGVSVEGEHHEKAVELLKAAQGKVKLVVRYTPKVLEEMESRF

LNX1_1, Q8TBB1 = target: LNX1_1, Q8TBB1
Sequence of LNX1_1, Q8TBB1 (Q8TBB1 261-371): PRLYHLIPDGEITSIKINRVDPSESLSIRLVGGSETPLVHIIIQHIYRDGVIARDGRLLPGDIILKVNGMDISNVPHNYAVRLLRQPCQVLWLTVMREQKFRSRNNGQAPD

MAGI2_4, Q86UL8 = target: MAGI2_4, Q86UL8
Sequence of MAGI2_4, Q86UL8 (Q86UL8 772-865): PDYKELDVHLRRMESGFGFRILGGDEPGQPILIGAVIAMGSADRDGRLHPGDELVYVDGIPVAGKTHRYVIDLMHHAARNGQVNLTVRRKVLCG

MPP2, Q14168 = target: T8, MPP2, Q14168
T8 sequence (Q14168 180-250, limits assumed, looked up): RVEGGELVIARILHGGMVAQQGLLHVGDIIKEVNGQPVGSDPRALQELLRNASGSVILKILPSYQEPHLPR

NHERF3_3, Q5T2W1 = target: T9, NHERF3_3, Q5T2W1
T9 sequence (Q5T2W1 238-333, limits assumed, looked up): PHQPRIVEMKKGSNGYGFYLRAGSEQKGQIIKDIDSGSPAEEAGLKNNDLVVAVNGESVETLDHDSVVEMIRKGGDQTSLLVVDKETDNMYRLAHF

NHERF4_2, Q86UT5 = target: NHERF4_2, Q86UT5
Sequence of NHERF4_2, Q86UT5 (Q86UT5 220-308): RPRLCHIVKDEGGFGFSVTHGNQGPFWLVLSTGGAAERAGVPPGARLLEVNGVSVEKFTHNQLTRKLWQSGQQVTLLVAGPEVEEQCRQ

NOS1, P29475 = target: NOS1, P29475
Sequence of NOS1, P29475 (P29475 9-101): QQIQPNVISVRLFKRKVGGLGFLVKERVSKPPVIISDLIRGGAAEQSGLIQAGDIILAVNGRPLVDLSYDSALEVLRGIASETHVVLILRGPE

PARD3B_1, Q8TEW8 = target: T10, PARD3B_1, Q8TEW8
T10 sequence (Q8TEW8 196-299, limits assumed, looked up): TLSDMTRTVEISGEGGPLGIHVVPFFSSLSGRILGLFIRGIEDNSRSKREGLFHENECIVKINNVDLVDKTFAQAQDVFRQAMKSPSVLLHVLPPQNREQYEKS

PARD3_3, Q8TEW0 = target: PARD3_3, Q8TEW0
Sequence of PARD3_3, Q8TEW0 (Q8TEW0 582-685): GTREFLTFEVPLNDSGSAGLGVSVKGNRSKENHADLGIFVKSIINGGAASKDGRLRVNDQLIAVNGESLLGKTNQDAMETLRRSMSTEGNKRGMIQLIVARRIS

PCLO, Q9Y6V0 = target: T11, PCLO, Q9Y6V0
T11 sequence (Q9Y6V0 4491-4600, limits assumed, looked up): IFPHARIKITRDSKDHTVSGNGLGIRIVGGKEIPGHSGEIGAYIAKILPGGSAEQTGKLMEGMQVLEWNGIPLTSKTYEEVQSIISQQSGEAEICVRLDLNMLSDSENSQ

PTPN13_1, Q12923 = target: T12, PTPN13_1, Q12923
T12 sequence (Q12923 1088-1188, limits assumed, looked up): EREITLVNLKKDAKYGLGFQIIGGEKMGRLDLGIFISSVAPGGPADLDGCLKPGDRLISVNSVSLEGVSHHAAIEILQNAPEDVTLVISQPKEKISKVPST

| Binder | pKd (ARHGAP21, Q5T5U3) | pKd (ARHGEF11, O15085) | pKd (DFNB31_3, Q9P202) | pKd (DLG4_2, P78352) | pKd (FRMPD1, Q5SYB0) | pKd (GIPC2, Q8TF65) | pKd (GRID2IP_2, A4D2P6) | pKd (GRIP1_5, Q9Y3R0) | pKd (GRIP2_4, Q9C0E4) | pKd (IL16_3, Q14005) | pKd (Inadl_10, Q8NI35) | pKd (Inadl_8, Q8NI35) | pKd (LIN7B, Q9HAP6) | pKd (LIN7C, Q9NUP9) | pKd (LNX1_1, Q8TBB1) | pKd (MAGI2_4, Q86UL8) | pKd (MPP2, Q14168) | pKd (NHERF3_3, Q5T2W1) | pKd (NHERF4_2, Q86UT5) | pKd (NOS1, P29475) | other results |
| --- | --- | --- | --- | --- | --- | --- | --- | --- | --- | --- | --- | --- | --- | --- | --- | --- | --- | --- | --- | --- | --- |
| RTQSSDSAYV [GJD2, Q9UKL4] | 3.62 | 4.21 | below the threshold | 3.65 | below the threshold | below the threshold | below the threshold | below the threshold | below the threshold | below the threshold | below the threshold | 3.7 | below the threshold | below the threshold | 3.9 | below the threshold | below the threshold | below the threshold | below the threshold | 3.95 | pKd (PARD3B_1, Q8TEW8): 4.63; pKd (PARD3_3, Q8TEW0): 3.68; pKd (PCLO, Q9Y6V0): below the threshold; pKd (PTPN13_1, Q12923): below the threshold |
| SRPTKGPTLL [PLEKHH2, Q8IVE3] | 4.02 | 3.85 | 3.5 | 3.7 | below the threshold | below the threshold | 4.48 | below the threshold | below the threshold | below the threshold | below the threshold | 3.61 | below the threshold | below the threshold | below the threshold | below the threshold | below the threshold | below the threshold | below the threshold | 4.35 | pKd (PARD3B_1, Q8TEW8): 4.41; pKd (PARD3_3, Q8TEW0): below the threshold; pKd (PCLO, Q9Y6V0): below the threshold; pKd (PTPN13_1, Q12923): below the threshold |
| RPGFASESKV [ADRB1, P08588] | 3.98 | 4.05 | below the threshold | 4.22 | below the threshold | below the threshold | below the threshold | below the threshold | below the threshold | below the threshold | below the threshold | 3.73 | below the threshold | below the threshold | 3.7 | below the threshold | below the threshold | below the threshold | below the threshold | 3.6 | pKd (PARD3B_1, Q8TEW8): below the threshold; pKd (PARD3_3, Q8TEW0): below the threshold; pKd (PCLO, Q9Y6V0): below the threshold; pKd (PTPN13_1, Q12923): below the threshold |
